What was measured:
Experiment in all cases: pull-down; His:BPM proteins kept on Ni-NTA agarose beads, incubated with eluted GST-tagged proteins in 0.1 M Tris pH 7.5, 150 mM NaCl, 0.5% NP-40, PMSF, 2 h at 4°C, three washes; blots with anti-GST and anti-His
Settings in all cases: both partners purified
His:BPM3 = biological target: T1, His:BPM3 (Arabidopsis thaliana, UniProt O22286 1-408)
T1 construct: BPM3, MATH-BTB/POZ protein, Arabidopsis thaliana; cloned into pET21b (NdeI/XhoI); pET21b usually adds a C-terminal His6 tag (surmised); also called His-tagged BPM3; source: E. coli, purified on Ni-NTA agarose beads (remained on the beads)
T1 sequence (looked up): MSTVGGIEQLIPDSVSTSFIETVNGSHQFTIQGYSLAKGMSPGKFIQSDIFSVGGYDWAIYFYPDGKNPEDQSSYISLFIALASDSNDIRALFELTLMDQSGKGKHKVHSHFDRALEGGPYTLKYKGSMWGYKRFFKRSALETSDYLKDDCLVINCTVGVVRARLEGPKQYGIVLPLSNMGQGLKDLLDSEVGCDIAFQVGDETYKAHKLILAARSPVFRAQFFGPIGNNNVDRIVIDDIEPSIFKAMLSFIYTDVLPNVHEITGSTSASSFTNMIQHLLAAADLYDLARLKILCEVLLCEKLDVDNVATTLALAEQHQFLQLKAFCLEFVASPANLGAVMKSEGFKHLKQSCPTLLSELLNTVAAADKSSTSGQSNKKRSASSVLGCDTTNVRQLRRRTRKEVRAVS

His:BPM1 = biological target: T2, His:BPM1 (Arabidopsis thaliana, UniProt Q8L765 1-407)
T2 construct: BPM1, MATH-BTB/POZ protein, Arabidopsis thaliana; cloned into pET21b (NdeI/XhoI); pET21b usually adds a C-terminal His6 tag (surmised); also called His-tagged BPM1; source: E. coli, purified on Ni-NTA agarose beads (remained on the beads)
T2 sequence (looked up): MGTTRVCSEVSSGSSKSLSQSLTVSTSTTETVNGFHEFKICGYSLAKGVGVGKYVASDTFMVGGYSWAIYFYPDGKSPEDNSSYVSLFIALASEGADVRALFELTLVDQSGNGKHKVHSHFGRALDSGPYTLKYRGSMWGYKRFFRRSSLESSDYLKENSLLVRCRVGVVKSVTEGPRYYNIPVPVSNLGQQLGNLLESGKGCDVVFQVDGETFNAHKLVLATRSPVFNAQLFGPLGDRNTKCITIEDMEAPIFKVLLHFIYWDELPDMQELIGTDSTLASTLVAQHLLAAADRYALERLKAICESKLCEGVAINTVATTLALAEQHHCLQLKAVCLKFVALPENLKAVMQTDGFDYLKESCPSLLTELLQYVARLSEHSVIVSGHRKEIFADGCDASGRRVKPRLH

His:BPM5 = biological target: T3, His:BPM5 (Arabidopsis thaliana, UniProt Q1EBV6 1-410)
T3 construct: BPM5, MATH-BTB/POZ protein, Arabidopsis thaliana; cloned into pET21b (NdeI/XhoI); pET21b usually adds a C-terminal His6 tag (surmised); also called His-tagged BPM5; source: E. coli, purified on Ni-NTA agarose beads (remained on the beads)
T3 sequence (looked up): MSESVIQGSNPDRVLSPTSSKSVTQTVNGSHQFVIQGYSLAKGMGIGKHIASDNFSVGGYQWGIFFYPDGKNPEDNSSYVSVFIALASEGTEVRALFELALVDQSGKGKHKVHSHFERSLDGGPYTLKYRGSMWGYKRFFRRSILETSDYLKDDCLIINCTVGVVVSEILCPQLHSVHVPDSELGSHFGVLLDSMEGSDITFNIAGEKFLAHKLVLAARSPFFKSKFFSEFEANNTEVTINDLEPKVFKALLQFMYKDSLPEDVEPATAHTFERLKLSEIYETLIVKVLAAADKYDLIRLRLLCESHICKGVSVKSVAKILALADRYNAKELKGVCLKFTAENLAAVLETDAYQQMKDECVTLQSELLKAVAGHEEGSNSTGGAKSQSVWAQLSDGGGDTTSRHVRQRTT

Measured: binding result

B1: GST:MYB25 (natural protein)
chain: not shown
notes: MYB25, Arabidopsis thaliana, At2g39880, 367 AA; cDNA in pDEST15; GST fusion ~67.8 kDa; also called GST-tagged MYB25; source: E. coli, purified (glutathione agarose beads), eluted; not shown: GST, N-terminal, kept
binds: all assays above

B2: GST:MYB1 (natural protein)
chain: not shown
notes: MYB1, Arabidopsis thaliana, At3g09230, 393 AA; cDNA; GST fusion ~69.7 kDa; Two GST constructs of MYB1 are described (pDEST15 by Gateway; pHB2-GST from the clone DKLAT3G09230); also called GST-tagged MYB1; source: E. coli, purified (glutathione agarose beads), eluted; not shown: GST, N-terminal, kept
binds: all assays above

— paper PMC8417012, “Characterization of Arabidopsis thaliana R2R3 S23 MYB Transcription Factors as Novel Targets of the Ubiquitin Proteasome-Pathway and Regulators of Salt Stress and Abscisic Acid Response” (Frontiers in Plant Science, 2021)
